Reference: the Immune Epitope Database (IEDB)
Values belong to the sequence of their own block, whether it stands above or below them.

Legend:
[1] = molecular target: HLA-B*15:03; assay: IEDB peptide-MHC binding, purified MHC/competitive/radioactivity; filed as Kd, often an IC50 or EC50 that approximates it; ≥ and ≤ were set here for values at or beyond the usual limits of such assays
[2] = molecular target: HLA-B*57:01; assay: as above
[3] = molecular target: HLA-B*58:01; assay: as above
[4] = molecular target: HLA-A*03:01; assay: IEDB peptide-MHC binding, purified MHC/competitive/fluorescence; filed as Kd, often an IC50 or EC50 that approximates it; ≥ and ≤ were set here for values at or beyond the usual limits of such assays
[5] = molecular target: HLA-A*29:02; assay: IEDB peptide-MHC binding, purified MHC/direct/fluorescence; filed as Kd, often an IC50 or EC50 that approximates it; ≥ and ≤ were set here for values at or beyond the usual limits of such assays
[6] = molecular target: HLA-A*01:01; assay: as above
[7] = molecular target: HLA-B*15:01; assay: IEDB peptide-MHC binding, purified MHC/competitive/fluorescence; filed as Kd, often an IC50 or EC50 that approximates it; ≥ and ≤ were set here for values at or beyond the usual limits of such assays
[8] = molecular target: HLA-A*26:01; assay: as above; details: source organism: Salmonella enterica subsp. enterica serovar Typhi
[9] = molecular target: HLA-B*35:01; assay: as above
[10] = molecular target: HLA-B*27:05; assay: IEDB peptide-MHC binding, purified MHC/direct/fluorescence; filed as Kd, often an IC50 or EC50 that approximates it; ≥ and ≤ were set here for values at or beyond the usual limits of such assays
[11] = molecular target: HLA-A*11:01; assay: as above
[12] = molecular target: HLA-A*03:01; assay: as above
[13] = molecular target: HLA-B*39:01; assay: as above
[14] = molecular target: HLA-B*46:01; assay: as above
[15] = molecular target: HLA-B*15:01; assay: as above
[16] = molecular target: HLA-B*07:02; assay: as above
[17] = molecular target: HLA-B*40:01; assay: as above
[18] = molecular target: HLA-A*31:01; assay: as above
[19] = molecular target: HLA-B*44:02; assay: as above
[20] = molecular target: HLA-B*57:01; assay: as above
[21] = molecular target: HLA-A*69:01; assay: as above
[22] = molecular target: HLA-B*58:01; assay: as above
[23] = molecular target: HLA-A*32:01; assay: IEDB peptide-MHC binding, purified MHC/competitive/radioactivity; filed as Kd, often an IC50 or EC50 that approximates it; ≥ and ≤ were set here for values at or beyond the usual limits of such assays
[24] = molecular target: HLA-B*08:01; assay: as above; details: source organism: Vaccinia virus WR
[25] = molecular target: HLA-B*15:01; assay: as above
[26] = molecular target: HLA-A*30:01; assay: as above; details: source organism: Vaccinia virus WR
[27] = molecular target: HLA-A*68:02; assay: IEDB peptide-MHC binding, purified MHC/competitive/fluorescence; filed as Kd, often an IC50 or EC50 that approximates it; ≥ and ≤ were set here for values at or beyond the usual limits of such assays
[28] = molecular target: HLA-B*08:01; assay: IEDB peptide-MHC binding, purified MHC/direct/fluorescence; filed as Kd, often an IC50 or EC50 that approximates it; ≥ and ≤ were set here for values at or beyond the usual limits of such assays
[29] = molecular target: HLA-B*48:01; assay: as above; details: source organism: Mycobacterium avium 104
[30] = molecular target: HLA-A*02:01; assay: as above
[31] = molecular target: HLA-B*18:01; assay: as above; details: source organism: Mycobacterium avium 104
[32] = molecular target: HLA-A*24:02; assay: IEDB peptide-MHC binding, purified MHC/competitive/radioactivity; filed as Kd, often an IC50 or EC50 that approximates it; ≥ and ≤ were set here for values at or beyond the usual limits of such assays; details: source organism: Dengue virus 1 Singapore/S275/1990
[33] = molecular target: HLA-A*29:02; assay: IEDB peptide-MHC binding, purified MHC/competitive/fluorescence; filed as Kd, often an IC50 or EC50 that approximates it; ≥ and ≤ were set here for values at or beyond the usual limits of such assays
[34] = molecular target: HLA-A*26:01; assay: IEDB peptide-MHC binding, purified MHC/direct/fluorescence; filed as Kd, often an IC50 or EC50 that approximates it; ≥ and ≤ were set here for values at or beyond the usual limits of such assays; details: source organism: Yersinia pestis Nepal516
[35] = source organism: Vaccinia virus WR
[36] = source organism: Dengue virus 2 Jamaica/1409/1983
[37] = source organism: Dengue virus 4 Philippines/H241/1956
[38] = source organism: Mycobacterium tuberculosis variant bovis
[39] = source organism: Salmonella enterica subsp. enterica serovar Typhi
[40] = source organism: Mycobacterium tuberculosis
[41] = source organism: Cryptosporidium parvum Iowa II
[42] = source organism: Mycobacterium avium 104
[43] = source organism: Vaccinia virus Copenhagen
[44] = source organism: Dengue virus 1 Brazil/97-11/1997
[45] = source organism: Dengue virus 1 Singapore/S275/1990
[46] = source organism: Yersinia pestis Nepal516
[47] = source organism: Yersinia pestis
[48] = source organism: Bacillus anthracis str. A0488
[49] = source organism: Pan troglodytes

Sequence: AQYASTLSV
Kd [1, 35]: 0.162 nM

Sequence: ASGKLITEW
Kd [2, 36]: 4.7 nM
Kd [3, 36]: 13.5 nM

Sequence: ATGPISTLW
Kd [2, 36]: 1.42 nM
Kd [3, 36]: 1.49 nM

Sequence: ATGPVLTLW
Kd [2, 37]: 2.48 nM
Kd [3, 37]: 0.422 nM

Kd ([4]; source organism: Escherichia coli): 125 nM
Sequence: ATMATRRGY

Sequence: DTDPLPVVF
Kd ([5]; source organism: Mycobacterium tuberculosis str. Haarlem): ≥ 20000 nM
Kd [6, 38]: 236 nM

Sequence: FAHDDRYLY
Kd [7, 39]: 200 nM
Kd [8]: 54.4 nM
Kd [9, 39]: 0.2 nM

Sequence: FASALTALND
Kd [2, 36]: 636 nM
Kd [3, 36]: 1570 nM

Sequence: FHSRFVQAL
Kd [10, 40]: ≥ 20000 nM
Kd [11, 40]: ≥ 20000 nM
Kd [5, 40]: ≥ 20000 nM
Kd [12, 40]: ≥ 20000 nM
Kd [13, 40]: 39.9 nM
Kd [14, 40]: ≥ 20000 nM
Kd [6, 40]: ≥ 20000 nM
Kd [15, 40]: ≥ 20000 nM
Kd [16, 40]: ≥ 20000 nM
Kd [17, 40]: ≥ 20000 nM
Kd [18, 40]: ≥ 20000 nM
Kd [19, 40]: ≥ 20000 nM
Kd [20, 40]: ≥ 20000 nM
Kd [21, 40]: ≥ 20000 nM
Kd [22, 40]: ≥ 20000 nM

Sequence: FSKKKVCFV
Kd [23, 35]: ≥ 35400 nM
Kd [24]: 5.98 nM
Kd [25, 35]: 1850 nM
Kd [26]: 1160 nM
Kd [1, 35]: 13100 nM

Sequence: FTAYYLILA
Kd [27, 41]: 9.7 nM

Sequence: GTDSNGMLW
Kd ([5]; source organism: Mycobacterium tuberculosis H37Rv): ≥ 20000 nM
Kd [6, 40]: 74.8 nM

Sequence: HQAIISDVL
Kd [10, 38]: ≥ 20000 nM
Kd [5, 38]: ≥ 20000 nM
Kd [12, 38]: ≥ 20000 nM
Kd [13, 38]: 42.4 nM
Kd [14, 38]: ≥ 20000 nM
Kd [6, 38]: ≥ 20000 nM
Kd [16, 38]: ≥ 20000 nM
Kd [18, 38]: ≥ 20000 nM
Kd [19, 38]: ≥ 20000 nM
Kd [20, 38]: ≥ 20000 nM
Kd [21, 38]: ≥ 20000 nM
Kd [22, 38]: ≥ 20000 nM

Sequence: IAHVRDVVM
Kd [10, 42]: ≥ 20000 nM
Kd [11, 42]: ≥ 20000 nM
Kd [5, 42]: ≥ 20000 nM
Kd [28, 42]: 182 nM
Kd [12, 42]: ≥ 20000 nM
Kd [6, 42]: ≥ 20000 nM
Kd [29]: ≥ 20000 nM
Kd [17, 42]: ≥ 20000 nM
Kd [18, 42]: ≥ 20000 nM
Kd [19, 42]: ≥ 20000 nM
Kd [30, 42]: ≥ 20000 nM
Kd [21, 42]: ≥ 20000 nM
Kd [31]: ≥ 20000 nM
Kd [22, 42]: ≥ 20000 nM

Sequence: IIFMNLYSF
Kd [23, 43]: 1.25 nM
Kd [1, 43]: 10.7 nM

Sequence: IKENSIYSF
Kd [1, 35]: 1.45 nM

Sequence: IKTMMINPF
Kd [1, 35]: 0.191 nM

Sequence: ILVPNINIL
Kd [1, 35]: 600 nM

Sequence: KQIQKVETW
Kd [23, 44]: 49.5 nM
Kd [2, 44]: 460 nM
Kd [3, 44]: 4.77 nM

Sequence: KQIQRVETW
Kd [23, 45]: 21.1 nM
Kd [32]: 8580 nM
Kd [25, 45]: 67.8 nM
Kd [2, 45]: 44.1 nM
Kd [3, 45]: 10.8 nM

Sequence: KVREHTFVK
Kd [23, 35]: 148 nM
Kd [24]: ≥ 45400 nM
Kd [25, 35]: 4120 nM
Kd [26]: 2.12 nM
Kd [1, 35]: 19300 nM

Sequence: LASSLLKNDI
Kd [2, 36]: 1280 nM
Kd [3, 36]: 717 nM

Sequence: MMVSTENNL
Kd [1, 35]: 11 nM

Sequence: NKVLCISFF
Kd [1, 35]: 41.4 nM

Sequence: NSYTLLLAY
Kd [7, 46]: 676 nM
Kd [9, 46]: 49 nM

Kd ([33]; source organism: Escherichia coli HS): 19.9 nM
Sequence: QKMHNHYAY

Sequence: QQSEARRML
Kd [10, 46]: ≥ 20000 nM
Kd [11, 46]: ≥ 20000 nM
Kd [28, 47]: 6410 nM
Kd [12, 46]: ≥ 20000 nM
Kd ([13]; source organism: Yersinia pestis CA88-4125): 2090 nM
Kd [6, 46]: ≥ 20000 nM
Kd [15, 47]: 109 nM
Kd [34]: ≥ 20000 nM
Kd [16, 47]: 397 nM
Kd [17, 46]: ≥ 20000 nM
Kd [18, 46]: ≥ 20000 nM
Kd [19, 46]: ≥ 20000 nM
Kd [30, 47]: 703 nM
Kd [21, 46]: ≥ 20000 nM
Kd [22, 46]: ≥ 20000 nM

Sequence: SIYFLRGNH
Kd ([4]; source organism: Entamoeba histolytica HM-1:IMSS): ≥ 20000 nM

Sequence: SKYAGINIL
Kd [23, 35]: 16100 nM
Kd [24]: 16300 nM
Kd [25, 35]: 5640 nM
Kd [26]: 546 nM
Kd [1, 35]: 0.271 nM

Sequence: SMIDNSHLE
Kd [33, 41]: 68.3 nM

Sequence: SNENGGPPL
Kd ([13]; source organism: Influenza A virus (A/Cameron/1946(H1N1))): ≥ 20000 nM

Sequence: SQFTCSLAV
Kd [1, 35]: 1.47 nM

Sequence: SSIIKTFVV
Kd [27, 48]: 17.9 nM

Sequence: VMVTSKPLF
Kd [23, 35]: 18100 nM
Kd [24]: 3540 nM
Kd [25, 35]: 15.9 nM
Kd [26]: 15600 nM
Kd [1, 35]: 8.79 nM

Sequence: VSRLFWYGY
Kd [33, 48]: 75.9 nM

Sequence: YMYIMKLHH
Kd ([33]; source organism: Mycobacterium leprae): 36 nM

Sequence: YQTSVSQVA
Kd [1, 35]: 1.45 nM

Kd [2, 49]: 12600 nM
Kd [3, 49]: 1500 nM
Sequence: YRAVVPLVY
